Bridges are numbered along the chain shown (N, C = ends). Where no end group is shown, it is not given here. [ ]: non-standard residue; d: D form. NMeR = CN[C@@H](CCCNC(=N)N)C(=O)O; Pen = CC(C)(S)[C@H](N)C(=O)O
Test: Simulated Intestinal Fluid (SIF) Stability Assay
Assay type: in vitro ADME
Conditions: compared to SEQ ID NO: 39 with Cys or to monomer subunits
Method: Simulated Intestinal Fluid (SIF) Stability Assay
Studies were carried out in simulated intestinal fluid (SIF) to evaluate gastric stability of the dimer molecules of the instant invention. SIF was prepared by adding 6.8 g of monobasic potassium phosphate and 10.0 g of pancreatin to 1.0 L of water. After dissolution, the pH was adjusted to 6.8 using NaOH. DMSO stocks (2 mM) were first prepared for the test compounds. Aliquots of the DMSO solutions were dosed into 6 individual tubes, each containing 0.5 mL of SIF, which had been pre-warmed to 37° C.
The final test compound concentration was 20 μM. The vials were kept in a benchtop Thermomixer® for the duration of the experiment. At each timepoint (0, 5, 10, 20, 40, and 60 minutes), 1.0 mL of acetonitrile containing 1% formic acid was added to one vial to terminate the reaction. Samples were stored at 4° C. until the end of the experiment. […] Aliquots of the supernatant were removed, diluted 1:1 into distilled water containing internal standard, and analyzed by LCMS/MS. Percent remaining at each timepoint was calculated based on the peak area response ratio of test to compound to internal standard. Time 0 was set to 100%, and all later timepoints were calculated relative to time 0. Half-lives were calculated by fitting to a first-order exponential decay equation using GraphPad. […]

SEQ ID NO: 102: homodimer of monomer subunit with Pen in place of Cys and N-Me-Arg, dimerized at C-termini (K[Pen][NMeR]SDTL[Pen]W; disulfide 2-8 (inferred); also: homodimer dimerized at C-termini)
stability in simulated intestinal fluids (SIF) (in words): increased stability significantly

Source: patent US9273093B2, “α4β7 peptide dimer antagonists” (Protagonist Therapeutics, Inc., priority 2012, dated 2016)
